Patent US20260274985A1 (MYTHIC THERAPEUTICS, published 2026)

T1: Human TROP2 Protein, His Tag (Acro Biosystems) (human, UniProt P09758 27-274)
T1 construct: not shown: His tag
T1 sequence (looked up): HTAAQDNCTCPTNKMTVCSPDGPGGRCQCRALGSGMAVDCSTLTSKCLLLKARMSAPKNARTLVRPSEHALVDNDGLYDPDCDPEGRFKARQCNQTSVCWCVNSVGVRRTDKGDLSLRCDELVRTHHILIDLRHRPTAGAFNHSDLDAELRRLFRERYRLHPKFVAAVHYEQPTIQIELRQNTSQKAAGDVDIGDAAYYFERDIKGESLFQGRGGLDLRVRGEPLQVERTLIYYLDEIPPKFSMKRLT

T2: Human TROP2 Protein, His Tag (Acro Biosystems) (human, UniProt P09758 27-274)
T2 construct: Bought antigen used at 50 nM in the Octet screen; also called TACSTD2; not shown: His tag
T2 sequence (looked up): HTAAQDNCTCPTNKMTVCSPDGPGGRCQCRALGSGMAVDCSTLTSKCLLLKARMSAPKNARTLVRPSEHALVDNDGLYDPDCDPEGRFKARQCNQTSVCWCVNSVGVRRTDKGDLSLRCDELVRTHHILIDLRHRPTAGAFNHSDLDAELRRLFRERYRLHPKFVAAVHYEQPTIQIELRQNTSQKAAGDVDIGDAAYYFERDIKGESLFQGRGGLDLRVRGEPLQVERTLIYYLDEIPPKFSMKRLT


How the values were obtained:
[1] = biological target: T1, Human TROP2 Protein, His Tag (Acro …); assay: Octet (BLI); antigen and pH not given
[2] = biological target: T2, Human TROP2 Protein, His Tag (Acro …); assay: BLI (Octet) [1/2]
Experimental: After allowing for four days of protein expression, cell culture supernatants were collected, quantified by SDS-PAGE analysis (DNS), and the pH dependence of the variant was evaluated using biolayer interferometry (BLI) on an Octet RED 96e instrument. Briefly, cell culture supernatants were diluted based on qualitative expression level of the variant determined by visual examination of SDS-PAGE gels, 5 μL of cell culture supernatant was diluted into 195 μL of 1×PBST, pH 7.4 for high expressors, 25 μL of cell culture supernatant was diluted into 175 μL of 1×PBST, pH 7.4 for medium expressors and 100 μL of cell culture supernatant was diluted into 100 μL of 1×PBST, pH 7.4 for low expressors for loading onto the sensor tips. The resulting diluted supernatants were then captured on an anti-human Fc sensor (Forte Bio). A baseline was established using 1×PBST (50 mM Potassium Phosphate Buffer+150 mM NaCl+0.05% Tween 20) pH 7.4, and the sensor was associated with 50 nM of TROP2 (Human TROP2 Protein, His Tag, Acro Biosystems) in 1×PBST pH 7.4 for 120 sec to generate an association curve. In the dissociation phase, the antibody-antigen complex on the sensor was exposed to 1×PBST pH 7.4 or pH 5.4, for 300 sec. Association and dissociation phase curves were examined for the starting ABPC antibody (with no substitutions) and each corresponding antibody variant at pH 5.4 and pH 7.4 to inform on two criteria: a) enhanced dissociation (i.e., higher koff values) at pH 5.4 due to histidine or alanine substitution compared to the starting ABPC, (with no substitutions), and b) reduced dissociation at pH 7.4 (i.e., lower koff values) compared to pH 5.4 in the antibody variant itself and with the starting ABPC (with no substitutions). […] It was also noted that while some mutations obliterated TROP2 binding, others were tolerated with little or n change in TROP2 binding kinetics.

Binder	Kd [1]	Octet response at 33.33 nM (Y-Axis) nm [1]	binding result [2]
MYT11690 (antibody, V domains shown, IgG; also called Datopotamab LC variant) VH: QVQLVQSGAEVKKPGASVKVSCKASGYTFTTAGMQWVRQAPGQGLEWMGWINTHSGVPKYAEDFKGRVTISADTSTSTAYLQLSSLKSEDTAVYYCARSGFGSSYWYFDVWGQGTLVTVSS VL: DIQMTQSPSSLSASVGDRVTITCKASQDVSTAVAWYQQKPGKAPKLLIYSAHYRYTGVPSRFSGSGSGTDFTLTISSLQPEDFAVYYCQQHYITPLTFGQGTKLEIK	3.4 nM	0.0911 nm	–
MYT11691 (antibody, V domains shown, IgG; also called Datopotamab LC variant) VH: QVQLVQSGAEVKKPGASVKVSCKASGYTFTTAGMQWVRQAPGQGLEWMGWINTHSGVPKYAEDFKGRVTISADTSTSTAYLQLSSLKSEDTAVYYCARSGFGSSYWYFDVWGQGTLVTVSS VL: DIQMTQSPSSLSASVGDRVTITCKASQDVSTAVAWYQQKPGKAPKLLIYSASHRYTGVPSRFSGSGSGTDFTLTISSLQPEDFAVYYCQQHYITPLTFGQGTKLEIK	6.03 nM	0.0719 nm	–
MYT13160 (antibody, V domains shown, IgG; also called Sacituzumab HC-LC pairing variant) VH: QVQLQQSGSELKKPGASVKVSCKASGYTFTNHGMNWVKQAPGQGLKWMGWINTYTGEPTYTDDFKGRFAFSLDTSVSTAYLQISSLKADDTAVYFCARGGFGSSYWYFDVWGQGSLVTVSS VL: DIQLTQSPSSLSASVGDRVSITCKASQDVHIAVAWYQQKPGKAPKLLIYSASYRYTGVPDRFSGSGSGTDFTLTISSLQPEDFAVYYCQQHYITPLTFGAGTKVEIK	0.009 nM	0.077 nm	–
MYT13265 (antibody, V domains shown, Full-length IgG; also called Datopotamab HC-LC pairing variant) VH: QVQLVQSGAEVKKPGASVKVSCKASGYTFTTAGMQWVRQAPGQGLEWMGWINTHSGVPKYAEDFKGRVTISADTSTSTAYLQLSSLKSEDTAVYYCAHSGFGSSYWYFDVWGQGTLVTVSS VL: DIQMTQSPSSLSASVGDRVTITCKASQDVSTAVAWYQQKPGKAPKLLIYSASHRYTGVPSRFSGSGSGTDFTLTISSLQPEDFAVYYCQQHYITPLTFGQGTKLEIK	9.5 nM	0.0712 nm	–
MYT11745 (antibody, V domains shown, hu7E6SVG variant, His at LCV position 25 (L1 02); screened as IgG in Expi293 supernatant) VH: QVQLQESGPGLVKPSETLSLTCTVSGGSISSYGVHWIRQPPGKGLEWIGVIWTSGVTDYNSALMGRVTISVDTSKNQFSLKLSSVTAADTAVYYCARDGDYDRYTMDYWGQGTLVTVSS VL: DIVMTQSPDSLAVSLGERATINCRHSKSVSTSGYSYMHWYQQKPGQPPKLLIYLASNLESGVPDRFSGSGSGTDFTLTISSLQAEDVAVYYCQHSRELPYTFGQGTKLEIK	–	–	binds
MYT11750 (antibody, V domains shown, hu7E6SVG variant, His at LCV position 30 (L1 07); screened as IgG in Expi293 supernatant) VH: QVQLQESGPGLVKPSETLSLTCTVSGGSISSYGVHWIRQPPGKGLEWIGVIWTSGVTDYNSALMGRVTISVDTSKNQFSLKLSSVTAADTAVYYCARDGDYDRYTMDYWGQGTLVTVSS VL: DIVMTQSPDSLAVSLGERATINCRASKSVHTSGYSYMHWYQQKPGQPPKLLIYLASNLESGVPDRFSGSGSGTDFTLTISSLQAEDVAVYYCQHSRELPYTFGQGTKLEIK	–	–	binds
MYT13290 (antibody, V domains shown, Full-length IgG; also called h7E6SVG HC-LC pairing variant) VH: QVQLQESGPGLVKPSETLSLTCTVSGGSISSYGVHWIRQPPGKGLEWIGVIWTSGVTDYNSALMGRVTISVDTSKNQFSLKLSSVTAADTAVYYCARDGDYDRYTHDYWGQGTLVTVSS VL: DIVMTQSPDSLAVSLGERATINCRASKSVSTSGYSYMHWYQQKPGQPPKLLIYLASNLESGVPDRFSGSGSGTDFTLTISSLQAEDVAVYYCHHSRELPYTFGQGTKLEIK	7.45 nM	0.103 nm	–
MYT11748 (antibody, V domains shown, hu7E6SVG variant, His at LCV position 28 (L1 05); screened as IgG in Expi293 supernatant) VH: QVQLQESGPGLVKPSETLSLTCTVSGGSISSYGVHWIRQPPGKGLEWIGVIWTSGVTDYNSALMGRVTISVDTSKNQFSLKLSSVTAADTAVYYCARDGDYDRYTMDYWGQGTLVTVSS VL: DIVMTQSPDSLAVSLGERATINCRASKHVSTSGYSYMHWYQQKPGQPPKLLIYLASNLESGVPDRFSGSGSGTDFTLTISSLQAEDVAVYYCQHSRELPYTFGQGTKLEIK	–	–	binds
MYT11747 (antibody, V domains shown, hu7E6SVG variant, His at LCV position 27 (L1 04); screened as IgG in Expi293 supernatant) VH: QVQLQESGPGLVKPSETLSLTCTVSGGSISSYGVHWIRQPPGKGLEWIGVIWTSGVTDYNSALMGRVTISVDTSKNQFSLKLSSVTAADTAVYYCARDGDYDRYTMDYWGQGTLVTVSS VL: DIVMTQSPDSLAVSLGERATINCRASHSVSTSGYSYMHWYQQKPGQPPKLLIYLASNLESGVPDRFSGSGSGTDFTLTISSLQAEDVAVYYCQHSRELPYTFGQGTKLEIK	–	–	binds
MYT11752 (antibody, V domains shown, hu7E6SVG variant, His at LCV position 32 (L1 09); screened as IgG in Expi293 supernatant) VH: QVQLQESGPGLVKPSETLSLTCTVSGGSISSYGVHWIRQPPGKGLEWIGVIWTSGVTDYNSALMGRVTISVDTSKNQFSLKLSSVTAADTAVYYCARDGDYDRYTMDYWGQGTLVTVSS VL: DIVMTQSPDSLAVSLGERATINCRASKSVSTHGYSYMHWYQQKPGQPPKLLIYLASNLESGVPDRFSGSGSGTDFTLTISSLQAEDVAVYYCQHSRELPYTFGQGTKLEIK	–	–	binds
MYT13283 (antibody, V domains shown, Full-length IgG; also called h7E6SVG HC-LC pairing variant) VH: QVQLQESGPGLVKPSETLSLTCTVSGGSISSYGVHWIRQPPGKGLEWIGVIWTSGVTDYNSALMGRVTISVDTSKNQFSLKLSSVTAADTAVYYCARDGDYHRYTMDYWGQGTLVTVSS VL: DIVMTQSPDSLAVSLGERATINCRASKSVSTSGYSYMHWYQQKPGQPPKLLIYLASNLEHGVPDRFSGSGSGTDFTLTISSLQAEDVAVYYCQHSRELPYTFGQGTKLEIK	5.32 nM	0.108 nm	–

The remaining lines, values ahead:

Kd [1]	Octet response at 33.33 nM (Y-Axis) nm [1]	binding result [2]	Binder
–	–	no binding (tested: 50 nM)	MYT11751 (antibody, V domains shown, hu7E6SVG variant, His at LCV position 31 (L1 08); screened as IgG in Expi293 supernatant) VH: QVQLQESGPGLVKPSETLSLTCTVSGGSISSYGVHWIRQPPGKGLEWIGVIWTSGVTDYNSALMGRVTISVDTSKNQFSLKLSSVTAADTAVYYCARDGDYDRYTMDYWGQGTLVTVSS VL: DIVMTQSPDSLAVSLGERATINCRASKSVSHSGYSYMHWYQQKPGQPPKLLIYLASNLESGVPDRFSGSGSGTDFTLTISSLQAEDVAVYYCQHSRELPYTFGQGTKLEIK
–	–	binds	MYT11754 (antibody, V domains shown, hu7E6SVG variant, His at LCV position 34 (L1 11); screened as IgG in Expi293 supernatant) VH: QVQLQESGPGLVKPSETLSLTCTVSGGSISSYGVHWIRQPPGKGLEWIGVIWTSGVTDYNSALMGRVTISVDTSKNQFSLKLSSVTAADTAVYYCARDGDYDRYTMDYWGQGTLVTVSS VL: DIVMTQSPDSLAVSLGERATINCRASKSVSTSGHSYMHWYQQKPGQPPKLLIYLASNLESGVPDRFSGSGSGTDFTLTISSLQAEDVAVYYCQHSRELPYTFGQGTKLEIK
–	–	binds	MYT11755 (antibody, V domains shown, hu7E6SVG variant, His at LCV position 35 (L1 12); screened as IgG in Expi293 supernatant) VH: QVQLQESGPGLVKPSETLSLTCTVSGGSISSYGVHWIRQPPGKGLEWIGVIWTSGVTDYNSALMGRVTISVDTSKNQFSLKLSSVTAADTAVYYCARDGDYDRYTMDYWGQGTLVTVSS VL: DIVMTQSPDSLAVSLGERATINCRASKSVSTSGYHYMHWYQQKPGQPPKLLIYLASNLESGVPDRFSGSGSGTDFTLTISSLQAEDVAVYYCQHSRELPYTFGQGTKLEIK
–	–	binds	MYT11753 (antibody, V domains shown, hu7E6SVG variant, His at LCV position 33 (L1 10); screened as IgG in Expi293 supernatant) VH: QVQLQESGPGLVKPSETLSLTCTVSGGSISSYGVHWIRQPPGKGLEWIGVIWTSGVTDYNSALMGRVTISVDTSKNQFSLKLSSVTAADTAVYYCARDGDYDRYTMDYWGQGTLVTVSS VL: DIVMTQSPDSLAVSLGERATINCRASKSVSTSHYSYMHWYQQKPGQPPKLLIYLASNLESGVPDRFSGSGSGTDFTLTISSLQAEDVAVYYCQHSRELPYTFGQGTKLEIK
–	–	no binding (tested: 50 nM)	MYT11749 (antibody, V domains shown, hu7E6SVG variant, His at LCV position 29 (L1 06); screened as IgG in Expi293 supernatant) VH: QVQLQESGPGLVKPSETLSLTCTVSGGSISSYGVHWIRQPPGKGLEWIGVIWTSGVTDYNSALMGRVTISVDTSKNQFSLKLSSVTAADTAVYYCARDGDYDRYTMDYWGQGTLVTVSS VL: DIVMTQSPDSLAVSLGERATINCRASKSHSTSGYSYMHWYQQKPGQPPKLLIYLASNLESGVPDRFSGSGSGTDFTLTISSLQAEDVAVYYCQHSRELPYTFGQGTKLEIK
–	–	binds	MYT11746 (antibody, V domains shown, hu7E6SVG variant, His at LCV position 26 (L1 03); screened as IgG in Expi293 supernatant) VH: QVQLQESGPGLVKPSETLSLTCTVSGGSISSYGVHWIRQPPGKGLEWIGVIWTSGVTDYNSALMGRVTISVDTSKNQFSLKLSSVTAADTAVYYCARDGDYDRYTMDYWGQGTLVTVSS VL: DIVMTQSPDSLAVSLGERATINCRAHKSVSTSGYSYMHWYQQKPGQPPKLLIYLASNLESGVPDRFSGSGSGTDFTLTISSLQAEDVAVYYCQHSRELPYTFGQGTKLEIK
